Assay [1] concerns the target H7 hemagglutinin (A/Shanghai/2/13) (influenza A virus (A/Shanghai/2/13, H7)). Kind of assay: crystal structure.
The target in assay [2] is H1 hemagglutinin (A/Solomon Islands/3/06) (influenza A virus (A/Solomon Islands/3/06, H1)). Kind of assay: crystal structure.

The term stoichiometry N denotes the number of molecules, sites or subunits per partner or assembly.

For the substance “H7 hemagglutinin (A/Shanghai/2/13) (natural protein)”, the stoichiometry N in assay [1] came out at 3.

In turn, “H1 hemagglutinin (A/Solomon Islands/3/06) (natural protein)” displayed a stoichiometry N in assay [2] of 3.
